For one molecule, Ka results are on record in patent US6822075.

The target in assay [1] is Human polyclonal IgG (human). Description: affinity constant, method not stated; table prints no power of ten.
In assay [2] the target is Human polyclonal IgG (human). Description: affinity constant, method not stated; same result as the 1st table, row 8, column 7 but printed with its power of ten.

B1: Protein LG (protein)
chain: AVENKEETPETPETDSEEEVTIKANLIFANGSTQTAEFKGTFEKATSEAYAYADTLKKDNGEYTVDVADKGYTLNIKFAGKEKTPEEPKEEVTIKANLIYADGKTQTAEFKGTFEEATAEAYRYADALKKDNGEYTVDVADKGYTLNIKFAGKEKTPEEPKEEVTIKANLIYADGKTQTAEFKGTFEEATAEAYRYADLLAKENGKYTVDVADKGYTLNIKFAGKEKTPEEPKEEVTIKANLIYADGKTQTAEFKGTFAEATAEAYRYADLLAKENGKYTADLEDGGYTINIRFAGKKVDEKPEEPMDTYKLILNGKTLKGETTTEAVDAATAEKVFKQYANDNGVDGEWTYDDATKTFTVTEKPEVIDASELTPAVTTYKLVINGKTLKGETTTKAVDAETAEKAFKQYANDNGVDGVWTYDDATKTFTVTEM
On to B1, for which the Ka was 20 M⁻¹ in assay [1] and 2e+10 M⁻¹ in assay [2].
